In general, stoichiometry N refers to a count of units in the complex or per binding partner. In general, Kd refers to the equilibrium constant for the complex coming apart. A higher Kd goes with weaker binding.

For series [1], the target named is R.NgoAVII (Neisseria gonorrhoeae FA1090). Put plainly: SEC; gel filtration of single proteins and domains, Superdex 200 HR, room temperature, 20 mM Tris-HCl pH 8.0, 300 mM NaCl, 5 mM 2-mercaptoethanol; 20 μM (monomer) loading concentration. Background: Size exclusion chromatography separates by hydrodynamic size, large species first.
Series [2] shares this target. Put plainly: SAXS; full-length R- and N-proteins in 20 mM Tris-HCl pH 8.0, 400 mM KCl, 0.1 mM EDTA, 1 mM DTT; molecular weight from scattering data (MoW).
Series [3] has as its target N.CglI-DEAD-Z1 domain (Corynebacterium glutamicum ATCC 13032). Put plainly: SEC; gel filtration of single proteins and domains, Superdex 200 HR, room temperature, 20 mM Tris-HCl pH 8.0, 300 mM NaCl, 5 mM 2-mercaptoethanol; 20 μM (monomer) loading concentration.
The target of series [4] is R.CglI (containing a StrepII-tag), co-expressed with N.CglI (Corynebacterium glutamicum ATCC 13032). In words: SEC + other: SAXS; purified co-expressed RN.CglI complex; molecular weight close to the sum of the R.CglI and N.CglI dimers.
For series [5], the target named is N.CglI isolated Z1-C domain (Corynebacterium glutamicum ATCC 13032). Put plainly: SEC; gel filtration of single proteins and domains, Superdex 200 HR, room temperature, 20 mM Tris-HCl pH 8.0, 300 mM NaCl, 5 mM 2-mercaptoethanol; 20 μM (monomer) loading concentration.
Series [6] has as its system R.CglI in RN.CglI complex;N.CglI (Corynebacterium glutamicum ATCC 13032;Corynebacterium glutamicum ATCC 13032). Put plainly: EMSA. Particulars: EMSA: 1 nM 33P-DNA, 1-500 nM protein monomer, 40 mM Tris-acetate pH 8.3 (25°C), 0.1 mM EDTA (NgoAVII: 5 mM Ca-acetate instead), 0.1 mg/ml BSA, 10% glycerol …. (In general: A gel shift assay detects complexes by their altered migration in electrophoresis.)

For series [7], the system named is R.CglI (Corynebacterium glutamicum ATCC 13032). Put plainly: EMSA. Particulars: no metal, 0.1 mM EDTA; EMSA: 1 nM 33P-DNA, 1-500 nM protein monomer, 40 mM Tris-acetate pH 8.3 (25°C), 0.1 mM EDTA (NgoAVII: 5 mM Ca-acetate instead), 0.1 mg/ml BSA, 10% glycerol ….
Series [8] concerns the target N.CglI (Corynebacterium glutamicum ATCC 13032). Put plainly: SEC; gel filtration of single proteins and domains, Superdex 200 HR, room temperature, 20 mM Tris-HCl pH 8.0, 300 mM NaCl, 5 mM 2-mercaptoethanol; 20 μM (monomer) loading concentration.
The target of series [9] is R.CglI (Corynebacterium glutamicum ATCC 13032).
In series [10] the target is N.CglI (Corynebacterium glutamicum ATCC 13032). Put plainly: SAXS; full-length R- and N-proteins in 20 mM Tris-HCl pH 8.0, 400 mM KCl, 0.1 mM EDTA, 1 mM DTT; molecular weight from scattering data (MoW).
For series [11], the target named is R.CglI (containing a StrepII-tag), co-expressed with N.CglI (Corynebacterium glutamicum ATCC 13032). Put plainly: densitometry of SDS-PAGE; purified RN.CglI complex resolved by SDS/PAGE, molar ratio of the two bands.
For series [12], the target named is N.CglI (containing a His6-tag), co-expressed with R.CglI (Corynebacterium glutamicum ATCC 13032). Put plainly: SEC + other: SAXS; purified co-expressed RN.CglI complex; molecular weight close to the sum of the R.CglI and N.CglI dimers.
The target of series [13] is N.CglI isolated Z1 domain (Corynebacterium glutamicum ATCC 13032). In words: SEC; gel filtration of single proteins and domains, Superdex 200 HR, room temperature, 20 mM Tris-HCl pH 8.0, 300 mM NaCl, 5 mM 2-mercaptoethanol; 20 μM (monomer) loading concentration.
Series [14] deals with R.CglI (Corynebacterium glutamicum ATCC 13032). Described as above.
For series [15] the target is unchanged. Put plainly: SAXS; full-length R- and N-proteins in 20 mM Tris-HCl pH 8.0, 400 mM KCl, 0.1 mM EDTA, 1 mM DTT; molecular weight from scattering data (MoW).
Series [16] deals with the molecule itself. Put plainly: SEC; gel filtration of single proteins and domains, Superdex 200 HR, room temperature, 20 mM Tris-HCl pH 8.0, 300 mM NaCl, 5 mM 2-mercaptoethanol; 20 μM (monomer) loading concentration.

Regarding R.NgoAVII (enzyme), the stoichiometry N in series [1] and in [2] was 2 in each case.

Take “N.CglI-DEAD-Z1 domain (domain or fragment)”: the stoichiometry N in series [3] was 2.

On to “R.CglI (containing a StrepII-tag), co-expressed with N.CglI (enzyme)”, for which the stoichiometry N in [4] amounted to 2.

With “N.CglI isolated Z1-C domain (domain or fragment)”, the stoichiometry N in series [5] was found to be 2.

Regarding “TACAATCGATAATAGCCGCCGTGCGAGCCCATT (double strand) [33 bp cognate duplex]”, the Kd in [6] stood at 1.9 nM; in series [7] it was 9.2 nM.

Consider N.CglI (enzyme), for which the stoichiometry N in series [8] and in series [10] was 2 in each case. Besides, in [9], the ATP hydrolysis rate of N.CglI at saturating ATP (4 mM) and optimal concentrations of DNA and R.CglI (malachite green assay) amounted to 176 ATP/s.

With “N.CglI (containing a His6-tag), co-expressed with R.CglI (enzyme)”, the stoichiometry N (N.CglI per R.CglI) in series [11] is 0.75. For the same molecule, in series [12], the stoichiometry N came out at 2. Also, in series [4], the stoichiometry N (N.CglI per R.CglI (2:2)) came out at 1.

On to “N.CglI isolated Z1 domain (domain or fragment)”, for which the stoichiometry N in series [13] is 2.

Take R.CglI (enzyme): the stoichiometry N in series [14] and in series [15] was 2 in each case.

B1: R.CglI isolated PLD domain (domain or fragment)
chain: PLDKFFDKELKDTHHLDITVGYISEKSLQYLLLIAGTHPDLTITLTCGMHAREGMTAAQLHHARVLHDYLSDHDRGGVFVIPRLRYHGKIYLFHKNQHTDPIAYIGSANLSAIVPGYTSTFETGVILDPAPEDLVLH
On to B1, for which, in series [16], the “stoichiometry N” value was determined as 2.

Values taken from publication PMC4267653, “DNA cleavage by CgII and NgoAVII requires interaction between N- and R-proteins and extensive nucleotide hydrolysis” (Nucleic Acids Research, 2014).
